From article PMC3887093

B1: DBP-RII with C-terminally fused GFP, wild type, on the surface of HEK293T cells [Plasmodium vivax] / Duffy antigen/receptor for chemokines (DARC) on human red blood cells [human (endogenous in RBCs)] (parent)
chain 1: ASNTVMKNCNYKRKRRERDWDCNTKKDVCIPDRRYQLCMKELTNLVNNTDTNFHRDITFRKLYLKRKLIYDAAVEGDLLLKLNNYRYNKDFCKDIRWSLGDFGDIIMGTDMEGIGYSKVVENNLRSIFGTDEKAQQRRKQWWNESKAQIWTAMMYSVKKRLKGNFIWICKLNVAVNIEPQIYRWIREWGRDYVSELPTEVQKLKEKCDGKINYTDKKVCKVPPCQNACKSYDQWITRKKNQWDVLSNKFISVKNAEKVQTAGIVTPYDILKQELDEFNEVAFENEINKRDGAYIELCVCSVEEAKKNTQEVVTNVDN
chain 2: MGNCLHRAELSPSTENSSQLDFEDVWNSSYGVNDSFPDGDYGANLEAAAPCHSCNLLDDSALPFFILTSVLGILASSTVLFMLFRPLFRWQLCPGWPVLAQLAVGSALFSIVVPVLAPGLGSTRSSALCSLGYCVWYGSAFAQALLLGCHASLGHRLGAGQVPGLTLGLTVGIWGVAALLTLPVTLASGASGGLCTLIYSTELKALQATHTVACLAIFVLLPLGLFGAKGLKKALGMGPGPWMNILWAWFIFWWPHGVVLGLDFLVRSKLLLLSTCLAQQALDLLLNLAEALAILHCVATPLLLALFCHQATRTLLPSLPLPEGWSSHLDTLGSKS

Variants of: B1
Experiment: red blood cell rosetting (RBC binding) assay with DBP-RII-GFP expressed on HEK293 cells
Details: parent: 100, read off a plot

chain 1 Y155A and chain 1 Y155L are the same in percent of parent: 0 % Binding for the first, 0 % Binding for the second.

First: chain 1 Q148D
Second: chain 1 Q148Y
The percent of parent of the first is lower: 18 % Binding for the first, 66 % Binding for the second.

Compared with chain 1 D56R, chain 1 D56W is higher in percent of parent: 42 % Binding for the first, 59 % Binding for the second.

Compared with chain 1 A73L, chain 1 I57R is higher in percent of parent: 0 % Binding for the first, 72 % Binding for the second.

Variant chain 1 T58W has a percent of parent of 55 % Binding.
